Biological target: Full-length Synechococcus PCC 7335 nitric oxide synthase (syNOS) (Synechococcus sp. PCC 7335)
Test: cryo-EM structure

Full-length Synechococcus PCC 7335 nitric oxide synthase (syNOS) (enzyme)
stoichiometry N: 2

— doi:10.1101/2025.08.15.670619
